Consider 5 molecules from paper PMC11633051, “Streptococcus pneumoniae GAPN is a key metabolic player necessary for host infection” (Protein Science : A Publication of the Protein Society, 2024).

Read-outs that look alike come from different tables or passages of the source.

For series [1], the target named is T1, S. pneumoniae GAPN (Streptococcus pneumoniae, UniProt A0A0H2ZNN4).
T1 construct: N-terminal 6xHis tag, pET21b (NdeI), E. coli BL21(DE3); tag removal not mentioned; homotetramer; catalytic C283
The series is described as follows: isothermal titration calorimetry. Format: binding.

Series [2] addresses T1, S. pneumoniae GAPN. The series is described as follows: UV kinetics at […] nm, varied G3P with fixed E4P ([…]). Format: biochemical.
Series [3] concerns O=C[C@H](O)COP(=O)(O)O. The series is described as follows: purified protein. As to conditions: pH 7.5, 25°C, 1.0 mM NADP+, 40 nM GAPN.
Series [4] deals with NC(=O)c1ccc[n+]([C@@H]2O[C@H](COP(=O)(O)OP(=O)(O)OC[C@H]3O[C@@H](n4cnc5c(N)ncnc54)[C@H](OP(=O)(O)O)[C@@H]3O)[C@@H](O)[C@H]2O)c1. The series is described as follows: purified protein. To be noted: pH 7.5, 25°C, 1.0 mM G3P, 40 nM GAPN, varied: cofactor.
The test system of series [5] is NC(=O)c1ccc[n+]([C@@H]2O[C@H](COP(=O)(O)OP(=O)(O)OC[C@H]3O[C@@H](n4cnc5c(N)ncnc54)[C@H](O)[C@@H]3O)[C@@H](O)[C@H]2O)c1. The series is described as follows: purified protein. To be noted: pH 8.5, 25°C, 1.0 mM G3P (Figure 2 legend says 500 μM), 20 μM GAPN, varied: cofactor.
Series [6] deals with the molecule itself. The series is described as follows: cryo-EM structure; purified GAPN at 90 uM in 50 mM HEPES pH 7.5, 50 mM NaCl, 2 mM DTT; alone (apo), with 1 mM NADP+ (holo) or with 1 mM G3P; single particle reconstruction.

Molecule `NC(=O)c1ccc[n+]([C@@H]2O[C@H](COP(=O)(O)OP(=O)(O)OC[C@H]3O[C@@H](n4cnc5c(N)ncnc54)[C@H](OP(=O)(O)O)[C@@H]3O)[C@@H](O)[C@H]2O)c1` [NADP^+] displayed a Kd in series [1] of 51 ± 32 µM.

For `O=C[C@H](O)COP(=O)(O)O` [G3P], in series [1] (read-out: K D), the Kd is 0.053 ± 0.036 µM.

For the molecule `O=C[C@H](O)[C@H](O)COP(=O)(O)O` [E4P], the Ki in series [2] was 25.7 ± 7.2 µM.

In the case of “S. pneumoniae GAPN (Streptococcus pneumoniae D39)”, in series [3], the Km was 88 ± 17 µM, the maximal velocity (Vmax) amounted to 580 ± 30 nM/s and the kcat amounted to 14.5 ± 0.7 s⁻¹. Moreover, in series [4], the Km came out at 119 ± 12 µM, the Vmax is 570 ± 20 nM/s and the kcat turned out to be 14.2 ± 0.6 s⁻¹. In addition, in series [5], the Km was determined as 7200 ± 2000 µM and the kcat came to 0.4 ± 0.1 s⁻¹.

B1: Streptococcus pneumoniae GAPN (non-phosphorylating glyceraldehyde-3-phosphate dehydrogenase) (enzyme, S. pneumoniae strain D39)
chain: MTRYQNLVNGKWKSSEQEITIYSPINQEELGTVPAMTQTEADEAMQAARAALPAWRALSAIERAAYLHKTAAILERDKEKIGTILAKEVAKGIKAAIGEVVRTADLIRYAAEEGLRITGQAMEGGGFEAASKNKLAVVRREPVGIVLAIAPFNYPVNLSASKIAPALIAGNVVMLKPPTQGSISGLLLAKAFEEAGIPAGVFNTITGRGSEIGDYIIEHKEVNFINFTGSTPIGERIGRLAGMRPIMLELGGKDAALVLEDADLEHAAKQIVAGAFSYSGQRCTAIKRVIVLESVADKLATLLQEEVSKLTVGDPFDNADITPVIDNASADFIWGLIEDAQEKEAQALTPIKREGNLLWPVLFDQVTKDMKVAWEEPFGPVLPIIRVASVEEAIAFANESEFGLQSSVFTNDFKKAFEIAEKLEVGTVHINNKTQRGPDNFPFLGVKGSGAGVQGIKYSIEAMTNVKSIVFDVK
notes: GAPN, non-phosphorylating glyceraldehyde-3-phosphate dehydrogenase of S. pneumoniae strain D39; gapn gene PCR amplified from genomic DNA; UniProt A0A0H2ZNN4_STRP2; The gene was inserted with an N-terminal 6xHis tag into NdeI-cleaved pET21b; Homotetramer in the cryo-EM structures
As for B1, the “stoichiometry N” value in series [6] was 4.
